The values that follow come from patent publication CN111138531A (INST MILITARY MEDICINE ACADEMY MILITARY SCIENCES PLA, dated 2020).

The target of test [1] is sGP (EBOV, UniProt Q05320 33-295). The experiment in a line: ELISA on coated truncated GP, method as example 2.
The target of test [2] is GP1 (EBOV, UniProt Q05320 33-501). Briefly: ELISA on coated truncated GP, method as example 2.
For test [3], the target named is T1, RESTV GP (RESTV, UniProt Q66799 34-651).
T1 sequence: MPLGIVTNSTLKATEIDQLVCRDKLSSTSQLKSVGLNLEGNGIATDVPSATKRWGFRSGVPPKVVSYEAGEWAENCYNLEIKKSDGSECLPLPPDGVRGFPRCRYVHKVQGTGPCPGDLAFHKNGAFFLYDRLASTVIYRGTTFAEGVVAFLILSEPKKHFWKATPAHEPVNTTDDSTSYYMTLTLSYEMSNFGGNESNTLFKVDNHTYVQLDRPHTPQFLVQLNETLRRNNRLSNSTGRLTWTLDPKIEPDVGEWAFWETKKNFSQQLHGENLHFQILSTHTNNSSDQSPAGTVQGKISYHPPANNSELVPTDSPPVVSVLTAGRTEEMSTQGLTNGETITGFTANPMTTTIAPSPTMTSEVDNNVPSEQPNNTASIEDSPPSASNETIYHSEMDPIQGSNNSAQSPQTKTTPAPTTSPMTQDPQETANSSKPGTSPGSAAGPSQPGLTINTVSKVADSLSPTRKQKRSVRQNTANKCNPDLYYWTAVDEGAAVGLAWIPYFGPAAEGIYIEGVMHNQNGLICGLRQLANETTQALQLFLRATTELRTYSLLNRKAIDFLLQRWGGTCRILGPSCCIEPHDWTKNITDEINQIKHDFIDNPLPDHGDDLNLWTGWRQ
Briefly: ELISA, coated GP 1 μg/mL, 1:3 dilution series of 8F9. In general terms: An ELISA detects its analyte on a solid surface through an enzyme-linked reagent.

The target in test [4] is T2, SUDV GP (SUDV, UniProt Q7T9D9 33-650).
T2 sequence: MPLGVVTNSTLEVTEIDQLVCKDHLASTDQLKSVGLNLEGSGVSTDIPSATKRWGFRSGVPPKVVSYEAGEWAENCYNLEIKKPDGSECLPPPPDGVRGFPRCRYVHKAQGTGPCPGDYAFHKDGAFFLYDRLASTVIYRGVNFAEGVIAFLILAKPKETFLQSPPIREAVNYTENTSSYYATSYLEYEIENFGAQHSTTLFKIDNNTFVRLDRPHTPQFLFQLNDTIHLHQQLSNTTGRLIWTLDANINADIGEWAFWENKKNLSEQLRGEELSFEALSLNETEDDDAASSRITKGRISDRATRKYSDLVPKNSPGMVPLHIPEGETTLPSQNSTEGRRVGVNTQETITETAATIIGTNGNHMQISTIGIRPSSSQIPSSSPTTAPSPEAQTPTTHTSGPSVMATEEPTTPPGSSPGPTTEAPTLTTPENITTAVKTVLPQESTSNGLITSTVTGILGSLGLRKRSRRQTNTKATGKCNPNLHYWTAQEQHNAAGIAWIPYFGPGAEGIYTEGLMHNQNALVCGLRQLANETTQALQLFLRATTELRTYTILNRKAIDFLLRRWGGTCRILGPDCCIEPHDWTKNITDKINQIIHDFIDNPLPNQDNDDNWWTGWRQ
The test is described as above.

Test [5] deals with T3, EBOV GP (EBOV, UniProt Q05320 33-650).
T3 sequence: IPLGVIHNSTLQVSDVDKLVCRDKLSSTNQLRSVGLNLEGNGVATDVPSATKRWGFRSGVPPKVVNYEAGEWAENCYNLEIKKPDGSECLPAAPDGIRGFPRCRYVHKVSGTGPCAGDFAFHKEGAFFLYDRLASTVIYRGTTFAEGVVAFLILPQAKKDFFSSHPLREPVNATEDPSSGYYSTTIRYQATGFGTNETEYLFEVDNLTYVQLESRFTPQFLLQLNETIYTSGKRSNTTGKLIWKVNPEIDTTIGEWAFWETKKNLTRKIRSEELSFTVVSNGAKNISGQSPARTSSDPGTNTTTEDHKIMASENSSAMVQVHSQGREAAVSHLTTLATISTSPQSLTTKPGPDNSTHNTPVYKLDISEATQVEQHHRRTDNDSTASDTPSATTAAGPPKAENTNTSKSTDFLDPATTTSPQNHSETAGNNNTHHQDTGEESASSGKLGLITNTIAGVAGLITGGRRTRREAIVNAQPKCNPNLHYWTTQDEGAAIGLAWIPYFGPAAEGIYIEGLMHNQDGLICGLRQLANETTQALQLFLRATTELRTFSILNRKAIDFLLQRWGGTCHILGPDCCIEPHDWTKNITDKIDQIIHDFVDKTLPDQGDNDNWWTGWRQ
Briefly: ELISA, coated GP 1 μg/mL, 1:3 dilution series of 8F9 from 10 μg/mL.

B1: 单克隆抗体8F9 (antibody, V domains shown)
VH: EVQLLESGGGLVQPGGSLRLSCAASEFTFSNYAMNWVRQAPGKGLEWVSGISTRGSSTYYADSVKGRFTISRDNSKNTLYLQMNSLRVEDTAVYYCAKDRLSVFGVVLISSDYYGMDVWGQGTTVTVSS
VL: AIRMTQSPFSLSASVGDRVTITCRASRTISSYLNWYQKKPGKAPKLLIYAASSLQSGVPSRFSGSGSGTDFTLTISSLQPEDFATYYCQQSYSTPMTFGQGTRLEIKT
By EC50 is commonly meant the concentration giving half of the maximal effect. Low values mean an effect from little substance, high ones a need for much substance. In the case of B1, the EC50 in test [1] turned out to be 8.8 ng/mL; in test [2] it was 9.5 ng/mL; in test [5], 15 ng/mL. For the same molecule, the binding result in test [3] and in test [4] was “no binding (tested: 10μg/mL (highest concentration tested))” each time.
